Molecular target: the molecule itself
Experiment: Western blot with anti-His6 antibody: band of about 92 kDa against a theoretical mass of 47 kDa

B1: HvNEP-1 (Hordeum vulgare nepenthesin-1-type aspartic endoprotease), ΔHvNEP-1 with C-terminal His6 tag, expressed in Pichia pastoris KM71H (enzyme)
chain: DADTPKVAMASSGAGSSFRLAAHHDHALSRSDDGFLHVQSRLDNLLPSEANVTTLRPPVASPLDMAFSVVVGLGSGKGRHDYNLKLDASGSLTWVQCKPCNPKQPQRGPLFDPKASSTFQQVAGTSQICHPPYPMEPAGQQCAFHLSGMGGMSVHGYVAMENLTMGPEAMKEFVFGCSHSTGHFNSHGTFAGVAAMGKMPTSLVMQVAARGQTRFSYCLFSGGASRHGFLRFGADVPSRSGLRTTKILPALDAHESQYYVSLVGISLDAKRLTGVRPEMFARQRGGEGGCVVDPGTPLTVLVREAYRVVEDAVWSDLRRNKAERVQREGYGLCVRKTAEIKRHLQSLSLHFAEETARLVVKPEQLFVAVESRLHGAALCLAMRPGERTVIGALQQVDTRFVYDLKDAKLSFASEPCSQDTAGVDHHHHHH
notes: also called HvNEP-1 protease; truncated HvNEP-1
- binding result: binds

Source: patent US20200325490A1 (AARHUS UNIVERSITET, published 2020)
